Where two headings read alike, the source gives them in different places.
Tests used:
[1] = target: NaChBac (Bacillus halodurans); test: cryo-EM structure
[2] = target: NaChBac (Bacillus halodurans); test: cryo-EM structure; remark: listed apart in the source

stoichiometry N [1]: 4 | stoichiometry N [2]: 4
Substance: NaChBac (natural protein)

From paper doi:10.1101/2020.04.16.045674
